Laboratory results as given in the DeepSol protein solubility set.

Assay: soluble on expression in E. coli; label from the status in PepcDB or PDB records

Sequence | soluble on expression in E. coli
MIARLAIAALLVSSSLACLPGLGGLGGGCGGAAASPCAAPPMPPPVSCGGGCGAAPYPAGPMAAPYFAPAAIAPPPPPQGAVIGVGAQPAVYSAPLPAGNAYVGQGK | not soluble
GSDPGPEAARLRFRCFHYEEATGPQEALAQLRELCRQWLRPEVRSKEQMLELLVLEQFLGALPPEIQARVQGQRPGSPEEAAALVDGLRREPGG | soluble
MNRLKNMSKYSDAKELASLTLGKKTEYANQYDPSLLQPVPRSLNRNDLHLSATLPFQGCDIWTLYELSWLNQKGLPQVAIGEVSIPATSANLIESKSFKLYLNSYNQTRFASWDEVQTRLVHDLSACAGETVTVNVKSLNEYTAEPIVTMQGECIDDQDIEIANYEFDDALLQGAAQGEEVSEVLHSHLLKSNCLITNQPDWGSVEIAYHGAKMNREALLRYLVSFREHNEFHEQCVERIFTDIMRYCQPQSLTVYARYTRRGGLDINPFRSSHQSAPNHNQRMARQ | soluble
MERGQSLALQSNRNRPYMIRIIQPILRSERRRKLGREYFILHRKLSDCFSSIKWALPAKGDNSHGCSYPVMEHRSLIMRRLKDVDMYMQENKRTNLRLAISKLHGMIIRPGETFSVWRHVGRPTARKGYLEGLVLSQGKIGKGVGGGLCQLGNLLFWMFAHTPLSIVERHRHSFDVFPDINRSIPFGAGATLSYNYIDLRVSNNTPHTYRLELWLDDTHLNGRISSDTEQRDRYRIEETDHRIEHQSWGGYTRHNKLVRIVTRADGSEYTEPFVENHAIMMYNPLLSPPQNGASTSFQR | not soluble
MRGFSGQPLSDDDNYRIEKTQRNTIPERLHFSRERNMPIASIFGTRGYFVFSSEQSYDKFKQTNFNISTLDADGVGVPLFHIVQSYNVIGKITRSSPDFYIYKYVLQGVQDPPLYSDCKVICQDKVFRLCKILYCEIYAHQGFFETKYDFFYPSKTQPVKKYQIIKQSNMRDLYSTLDGMRFRWHVKFYSDHFRLMFLDEDRLNYSNSNQKERQKPDQGKSKAPDFVIGHYTRTFSDILPRSTSKCSNLIIGEHSKPDSLGITTVPDLTQEFACQGALIHYLLHIERERK | soluble
MGSDKIHHHHHHMVSSSAKLHDPEEGSAANFPDIDNLKIAFGQLPSGVVIVTSQGCGGEMVGATVSSFASLSFTPPLVMLGLAQSSTTLSAILDHGHFAVHVVAEPQQDIAMRFASSRADKFSDIDFKLSPSGVPILSEFDTCFHCALERAQSAGDHQLLIGRIVDVSTVERDTTPVAWFNRRFHICEPRALV | not soluble
MSEKTYELATFAGGCFWCMVKPFDELPDIHKVLSGYAGGHVENPTYEQVKAGTSGHLEVVQITFDPSIFPYEKLLNLYWPQIDPTDDGGQFFDRGPSYRTAIFYHTETQKELAEKSKHSLAESGMFKDPIVTEIRPAAPFYEAEEYHQHFYKKNPEKYATEQKESGREDFIKENWQKK | not soluble
EDHEGRHMMAVLPANNKISLSRLNDEFNATFHLVKERMVYRLFTDCEHGAIPPIGSPYHMSTVCDERLANLEHVYLEAGDHETLIKLDRKAFKDLMNDCKYLRFSSEVLH | not soluble
APSCPAGSLCTYSGTGLSGARTVIPASDMEKAGTDGVKLPASARSFANGTHFTLRYGPARKVTCVRFPCYQYATVGKVAPGAQLRSLPSPGATVTVGQDLGD | soluble
MNNNEIYVSLDIGTSNVRIIIGEITDGSINIIGVGNAPSEGIKKGSIVDIDETVRSIRRAVEQAERMVGLSIRQVIVGVNGNHVQLQPCHGVVAVSSPDREIGDEDIARVIDAAQVVSIPPEREIIDVIPKQFIVDGLDEINDPRGMIGVRLEMEGTIITGSKTLLHNLLRCVERAGLEVADICLQALAAGSVAISKDEKSLGVCLIDIGGGSMTISCFEQGSLVDTSVIPVGGDHVTNDIAVGLRISTEEAIKIKHTHGHAYIDEASEEDRFEVKAIGSTEPEAFSQFELAHIIEPRMEEMFELINRELRRLGQHDFPGGFVLTGGSVMMPGVLELAKETLGRNVRVAIPDYIGVREPQYTTGVGLIQFAYKNVKIQGKEVAAAVAEAGVEQEQRPKKEKERSRTNEGPGVKSKVKNWFKVFLE | not soluble
ELSYRLLDQIYINPAVILKREEQYIKDFQSYVTEQKLSMNDRKKIKEFTKTDWTIVMALYQENDIIFSSDSRFIVPLPADEYGETIKDTSEASGVFNVTFTDGAVQAALVYTGYENYQS | soluble
MSLAEILMGVGNAGLKESGNPDILVVYLPYPCTASFVFTDNYFKAGSVIYSERIARDKERIRAFVVNSGNANCGTGEEGIKHAEMMAEKVAQILDIPKDEVFVFSTGIIGKYLPIENVLKGIEQACSNLELLDLKRASEVISTTDRFPKYDFAKAGEVETFGFAKGAGMIHPSMATMLAFVFTNANLEYLTLKRIHESVTEKTFNSITVDGCESTNDAFGIISLGEVEADPETVEFELLKVSESLAKQIVADGEGATKIIRVNVRSAITEIKAREIAEAIANSLLVKTAVFGRDPNWGRIAAAAGSTEFPIDPFKLEIYVGGYLLYDGKPHDENLEKAKKHLIEDREVDITVELNEGEYEWVCYSSDIGYDYIKLNAEYTTEGHHHHHH | soluble
MSLKQADELRFNEDGLIPAIVQDAASKEVLTLAYMNKESYEKTLETKETWFYSRSRQALWHKGETSGNTQAVKGIRYDCDQDALLVLVEPSGPACHTGSYSCFTKEQTEEQAADRFGIMNELERVIAERQAEMPEGAYTTYLFREGVDKILKKVGEEASEVIIAAKNRDHEELKWEAADLLYHLLVLLREQSLPLDDVLDVLKKRHSEIEEEGHHHHHH | soluble
MGSDKIHHHHHHMNTLTLEYIKSILPPRPDNSHKMTFGHVLNIAGSLHYRGAAYLSSLSALRVGAGYVTLASSPSVCDSVSALTPNIVTFALRTLSPLSVHSLQRTANLHLKDAQIVDVQTLSPQAVLQLRDKLTQASAISIGSGLSIGQSTDQCIDITAINTELTVDVDVTLCTEMSAEISTDLNSDLNSDLNSDLRSELPICNVIKDNQPHSNELIPPQGNHGFFYALLNEIQTCTKPVIFDADALNFISHLLNPPVPFGTTTVTLPNKSIITPHPKELARLLNMDVATLQTQRMHFARLAAKQLNTIVVLKGKNTVITDGNDVFINPTGNSALAKAGTGDVLTGMISGFCAQGVSPINAACLGVYLHGLAGNIAAEDLSQYGMLASDLLSYIPKAILKVLAI | not soluble
MSALGAPAPYLHHPTDSHSGRVSFLGSQPSAEVTAVAQLLKDLDRSTFRKLLKLVVGALHGKDCREAVQHLGASANLSEERLAVLLAGTHTLLQQALRLPPASLKPDAFQDELQELGIPQDMIGDLASLAFGSQRPLLDSVAQQQGSSLPRVSNFRWRVDVAISTSAQSRSLQPSVLMQLKLTDGSAHRFEVPIAKFQELRYSVALVLKEMAELERKCERKLQD | not soluble
MRCMSDDHTHVQEFFEARAADWDSRFPDDGPAHAAAVAELGLREGDRVLDAGCGTGRALPSLRAAVGSSGVVVGVDLTPAMLAAAARAGRGRDGHLLLADVTRLPLGTESLDAVFAAGLIAHLPEPAENLRELARVVRAGGTLALFHPIGRAALAARQGRQITPDDLRAEANLGPLLAGSGWRMTSYVDEDARFLALAVRVKLEHHHHHH | not soluble
METIWIPHLHTALAYMHERFLELFILPDSCPSKKLEELQQKEGN | not soluble
MFLSTKFLPMSDTVIRIENLSKKYIIAHQQQERYTVLRDVIANQIKSLGSLINPKAKTENPNCEEFWALKDVSFEIKQGDRVGIIGRNGAGKSTLLKILSRITEPTHGCINIKGRIASLLEVGTGFHPELTGRENIYLNGAILGMSKAEIKRKFDEIVAFSEVEKFLDTPVKRYSSGMYVRLAFAVAAHLEPEILIVDEVLAVGDAAFQQKCLGKMEDVGKEGRTVLFVSHNMATVKQLCNCAFLLYQGNLIFQGNPHEAISQYMQKSTQGKHFHQANIYHHIKGDFRAEIEKITINNLDNSEIALSIFEKVKISIKYKINKPIDELDFFVLIYNLEDGEVQTSLFQRDSLSNIQPLSNYGTISVEFTNPLMPGKYTISAGIFDKNKRFVDWVELAESFYVESAFINGNKYDQRLGKISIQGTWYAE | not soluble
SLAQTQLIQSEKMSSLGQLIAGVAHEINNPVNFIYGNLRYVAEYAQDLLHLLEKYQKFLPVTPPELESELDNIDLEFIIQDLPKLLDSMKLGTGRIVEIVQSLKNFSRHDEAEMKAVNIHDGIDGTLMILHHRLKAAIRRPKIEIVKDYAKLPLIECYPGKLNQVFMNILANAIDALEEGMGNEEIPPPTGQITIRTEVLDNQWVVIRIADNGPGMKEEVIRRIYDPFFTTKDVGKGTGLGMAISYQIVVDKHGGMLKCRSQPGEGTEFWIQIPVNCALADAAEEG | not soluble
MENSFELMAREWHKNKADRWSLRYREEIIDTFEKDIFPFIGRRPIADIKPMELLETLKRMEKRGALEKMRKVRQRCGEVFRYAIITGRAEYNPAPDLAGALQTHKKQHLPLEHHHHHH | not soluble
MGEQPIFSTRAHVFQIDPNTKKNWVPTSKHAVTVSYFYDSTRNVYRIISLDGSKAIINSTITPNMTFTKTSQKFGQWADSRANTVYGLGFSSEHHLSKFAEKFQEFKEAAR | soluble
MSAFQAFVVNKTETEFTAGVQTISMDDLPEGDVLVRVHYSSVNYKDGLASIPDGKIVKTYPFVPGIDLAGVVVSSQHPRFREGDEVIATGYEIGVTHFGGYSEYARLHGEWLVPLPKGLTLKEAMAIGTAGFTAALSIHRLEEHGLTPERGPVLVTGATGGVGSLAVSMLAKRGYTVEASTGKAAEHDYLRVLGAKEVLAREDVMAERIRPLDKQRWAAAVDPVGGRTLATVLSRMRYGGAVAVSGLTGGAEVPTTVHPFILRGVSLLGIDSVYCPMDLRLRIWERLAGDLKPDLERIAQEISLAELPQALKRILRGELRGRTVVRLA | soluble
MSLSRSEEMHRLTENVYKTIMEQFNPSLRNFIAMGKNYEKALAGVTFAAKGYFDALVKMGELASESQGSKELGDVLFQMAEVHRQIQNQLEETLKSFHNELLTQLEQKVELDSRYLSAALKKYQTEQRSKGDALDKCQAELKKLRKKSQGSKNPQKYSDKELQYIDAISNKQGELENYVSDGYKTALTEERRRFCFLVEKQCAVAKNSAAYHSKGKELLAQKLPLWQQACADPNKIPDRAVQLMQQMANSNGSILPSALSASKSNLVISDPIPGAKPLPVPPELAPFVGRMSAQENVPVMNGVAGPDSEDYNPWADRKAAQPKSLSPPQSQSKLSDSYSNTLPVRKSVTPKNSYATTENKTLPRSSSMAAGLERNGRMRVKAIFSHAAGDNSTLLSFKEGDLITLLVPEARDGWHYGESEKTKMRGWFPFSYTRVLDSDGSDRLHMSLQQGKSSSTGNLLDKDDLALPPPDYGTSSRAFPTQTAGTFKQRPYSVAVPAFSQGLDDYGARSVSR | not soluble
GMIPIVDSRIGAYLDGLLPEADPVVAAMEQIARERNIPIVDRQTGRLLYLLARIKQPQLVVVPGDGLGCASWWFARAISISSRVVMIDPDRDNVEHARRMLHDNGLIDRVELQVGDPLGIAAGQRDIDILFMDCDVFNGADVLERMNRCLAKNALLIAVNALRRGSVAESHEDPETAALREFNHHLSRRRDFFTTIVPVGNGVLLGYRLS | soluble
MKFTWIALPGVLLLSACSSSQPNAPRPPRIGMPNPAAVYCEQQGGTLMPVQTPQGVRSDCKLPNGEIIDEWTLWRREHPDTKK | not soluble
